We go through two proteins from patent publication US20240238459.

The data set concerns T1, substrate sequence FVQWFSKFLGK (SEQ ID NO:3).
T1 sequence: FVQWFSKFLGK

B1: granzyme K (enzyme, UniProt P49863 27-264, looked up, species assumed)
Granzyme K: IIGGKEVSPHSRPFMASIQYGGHHVCGGVLIDPQWVLTAAHCQYRFTKGQSPTVVLGAHSLSKNEASKQTLEIKKFIPFSRVTSDPQSNDIMLVKLQTAAKLNKHVKMLHIRSKTSLRSGTKCKVTGWGATDPDSLRPSDTLREVTVTVLSRKLCNSQSYYNGDPFITKDMVCAGDAKGQKDSCKGDSGGPLICKGVFHAIVSGGHECGVATKPGIYTLLTKKYQTWIKSNLVPPHTN
Consider B1, for which the “protease specificity (cleavage activity; enzyme 5 nM, substrate 60 µM)” value is reported as “the substrate sequence is highly specific for granzyme B compared to the other proteases tested”.

B2: C1S (enzyme, UniProt P09871 16-688, looked up, species assumed)
Complement C1s subcomponent: EPTMYGEILSPNYPQAYPSEVEKSWDIEVPEGYGIHLYFTHLDIELSENCAYDSVQIISGDTEEGRLCGQRSSNNPHSPIVEEFQVPYNKLQVIFKSDFSNEERFTGFAAYYVATDINECTDFVDVPCSHFCNNFIGGYFCSCPPEYFLHDDMKNCGVNCSGDVFTALIGEIASPNYPKPYPENSRCEYQIRLEKGFQVVVTLRREDFDVEAADSAGNCLDSLVFVAGDRQFGPYCGHGFPGPLNIETKSNALDIIFQTDLTGQKKGWKLRYHGDPMPCPKEDTPNSVWEPAKAKYVFRDVVQITCLDGFEVVEGRVGATSFYSTCQSNGKWSNSKLKCQPVDCGIPESIENGKVEDPESTLFGSVIRYTCEEPYYYMENGGGGEYHCAGNGSWVNEVLGPELPKCVPVCGVPREPFEEKQRIIGGSDADIKNFPWQVFFDNPWAGGALINEYWVLTAAHVVEGNREPTMYVGSTSVQTSRLAKSKMLTPEHVFIHPGWKLLEVPEGRTNFDNDIALVRLKDPVKMGPTVSPICLPGTSSDYNLMDGDLGLISGWGRTEKRDRAVRLKAARLPVAPLRKCKEVKVEKPTADAEAYVFTPNMICAGGEKGMDSCKGDSGGAFAVQDPNDKTKFYAAGLVSWGPQCGTYGLYTRVKNYVDWIMKTMQENSTPRED
For B2, the “protease specificity (cleavage activity; enzyme 5 nM, substrate 60 µM)” value is listed as “the substrate sequence is highly specific for granzyme B compared to the other proteases tested”.
